Measurements published in the RNAGym collection of RNA variant scans (doi:10.1073/pnas.2313332121).

B1: TPR t1 (parent)
chain: GACCAAUCUGCCCUCAGAGCUCGAGAACAUCUUCGGAUGCAGAGGAGGCAGGCUUCGGUGGCGCGAUAGCGCCAACGUCCUCAACCUCCAAUGCAUCCCACCACAUGAUGAUGCCUGAAGAGCCUUGGUUUUUUG

Variants of: B1
Experiment: polymerase ribozyme fitness, log enrichment relative to wild type (log ratio); higher = more active; in vitro selection for triplet polymerase activity
Procedure, shortened: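 Each subunit of a heterodimeric triplet polymerase ribozyme was represented by a PCR-built, transcribed mutant library that underwent triplicate single-round in vitro selection with frozen incubation at −7 °C. Extended constructs were recovered by gel excision, streptavidin-bead capture and RT-PCR, and Illumina sequencing of input and output libraries kept genotypes with ≥10 input reads and ≥1 read per output. Fitness is the logarithm of genotype enrichment relative to wild-type enrichment, from inverse-variance-weighted replicate averages, with a logarithm base of 2.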

Row | Variant | polymerase ribozyme fitness (log ratio)
1 | G35U U106C G122A | -6.34
2 | G35U G63U C104G | -7.12
3 | G36C C72A C76A U106A G110A | -5.56
4 | G36C C98U U129A | -3.81
5 | G35A U129A | -5.19
6 | G36A U109A | -5.64
7 | G35U C79U C114U U131C U134G | -5.19
8 | G36U A84C G110A | -2.43
9 | G36A C72A C97U A121G | 1.78
10 | G36A U106A | -0.912
11 | G36A C115U | -1.88
12 | G35U C40U | -4.76
13 | G36A C62A | -1.61
14 | G36A C62U | -0.332
15 | G35A C123A | -3.41
16 | G35A A74U C101U | -4.34
17 | G36U G42C | -2.93
18 | G36U G42A | -3.47
19 | G36C G63U A95C A111U | -6.67
20 | G35U G117A | -5.15
21 | G35A G58A U78A C104U | -4.33
22 | G36A C86A C115A G120U | -2.65
23 | C34U G65C C70U G117C A121C | -7.03
24 | G36U C102U | -2.93

Row | Variant | polymerase ribozyme fitness (log ratio)
25 | G36A G42A A43C C53U | -3.85
26 | G36C U112G G117A | -3.75
27 | G36A A37U C86U U112A G120U | -5.12
28 | G36C C98G | -6.86
29 | G36A A41C A43U C88A A105C C123G | -5.88
30 | G36C C102A | -3.12
31 | G36C C123U | -0.107
32 | G36U C56G C123G | -5.15
33 | G36A G60A C85U C124G | 0.468
34 | G35U C64U | -5.09
35 | G36A G57U U129C | -1.31
36 | G36C G44C U81G A121C | -3.56
37 | G35A G45A | -4.16
38 | G35A C53G C62U G77C A84C | -4.08
39 | G35C C76G | -4.89
40 | G36U G47U G61A | -4.11
41 | G36A G42A U54G | -3.13
42 | G36U C53U A105C | -2.88
43 | G35U U54C C64G C76G C85U G113U | -7.14
44 | G35C A95G | -4.43
45 | G35A G120A | -2.08
46 | G36A G61U A103C A118U | -6.19
47 | G36C C56U C89G G117U | -7.02
48 | G35U U67G U109A C115U | -7.12

Row | Variant | polymerase ribozyme fitness (log ratio)
49 | G35U C101A G113C | -6.29
50 | G35C G61C U81G G117C | -5.32
51 | G36C G69U U132C | -0.866
52 | G36U A74G A83U C101G | -3.95
53 | G35C U59C C124A | -3.15
54 | G35U C101A | -4.48
55 | G35U C101U | -6.26
56 | G36C C94U C97U | -1.57
57 | G36U G58C C89A A91C C115U | -4.15
58 | G36C C49A C79U C101G | -2.06
59 | G35C C115U A118U | -7.09
60 | G35A C53G C104U G117U C124G U126G | -5.98
61 | G36U A68C C70U U87A G117U | -5.69
62 | G36A G42U C88A G113U | -3.82
63 | G36C C64U G113U | -3.55
64 | G36C C79G C98U C115U C124U | -6.21
65 | G36U A66G G69U U87G | -2.53
66 | G35A G60U | -3.33
67 | G36A A83C | -1.41
68 | G36A C102U | -3.67
69 | G35U U130C | -5.09
70 | G35A C56A C123G G128C | -5.64
71 | G36A G110A | -2.64
72 | G36U G44A G47A G48U G69U C82G A121C | 0.343

Row | Variant | polymerase ribozyme fitness (log ratio)
73 | G36A G117U | -4.6
74 | G36A G117C | -4.58
75 | G36C G113C | -2.78
76 | G35A G77U | -3.89
77 | G35C G52U A68C U92A C98G G110C G117U | -6.61
78 | G35U A90C | -6.98
79 | G35U C82U | -7.04
80 | G35C G61C C79G | -6.99
81 | G35A C56U C72U G113A U133A | -5.8
82 | G36A A46U A83G | -3.05
83 | G35U A74G | -5.03
84 | G36U C123A | -0.268
85 | G36U C123G | 0.712
86 | G36U C73U A119U | -1.63
87 | G35U C56U A121G | -4.8
88 | G35C C53U C94U A121C | -3.49
89 | G35A C85U C94A | -6.51
90 | G36U G48A C72U | -1.42
91 | G35U U78A C86U G93A G122A C123A | -6.42
92 | G36C C76A C79U A121U | 1.44
93 | G36U C80U C85U C98U C102A A103U A105C U106G C115G | -5.37
94 | G36U C89A | -2.46
95 | G35C A111C | -4.47
96 | C34U G117A | -5.61

Row | Variant | polymerase ribozyme fitness (log ratio)
97 | G36U A43U | -2.65
98 | G36A A43G A105U U112C | -5.32
99 | G36A C64U | -0.622
100 | G36C C49U C101G A119U | -3.31
101 | C34U U96A | -5.35
102 | C34U U96C | -5.22
103 | G36C C94U | -1.47
104 | G36A G42U C53U U55G C86U G110U | -6.5
105 | C34U U78G | -5.06
106 | G35A U59C | -4.9
107 | G35A U87G | -3.91
108 | G36U G61A G93C G120C | -0.0777
109 | C34U G113A C124A | -5.17
110 | G36C G61C C86U C114U | -6.11
111 | G36U C72U | -1.51
112 | G36U C64U | -1.21
113 | G35C A83U A121G U126A | -4.11
114 | G35A U55C C115U | -5.27
115 | G36U G47A C79U | -2.47
116 | G36U G47U U59A G117C | -6.9
117 | G36U C53G C56A | -1.45
118 | G35A G52U | -3.5
119 | G35A U78A | -4.53
120 | G35A G60U A121U | -2.03

Row | Variant | polymerase ribozyme fitness (log ratio)
121 | G36A G42A U54G C72U A75U | -2.79
122 | G35U G113C G120A G135C | -5.82
123 | G35A U132A | -3.49
124 | G36U G48U U132A G135C | -1.44
125 | G36A G57A | -1.38
126 | G35U G61U C94U C124U | -4.83
127 | G35A U92G A121G U125A | -5.24
128 | G35U U78A | -5.42
129 | G36C G42C G60C U130A | -3.88
130 | G36U C62A C123U G128C | -3.69
131 | G35A U116C | -3.83
132 | G36A C88U | -0.885
133 | G36U C73A C124U | 0.315
134 | C34U G61C C80U A83G | -7.08
135 | G36U G60A | -1.61
136 | G36A C49G G69U A90G C97U G120C | 0.538
137 | G35A C73A U78G A90G C115G A121C | -4.57
138 | G35A C99U U112A | -3.32
139 | G35U G61A | -4.27
140 | G35A C70U C79G C115A U133A | -7.56
141 | G36U G44A U59A G60A G77C U112C | 0.0936
142 | G35A G63C | -5.56
143 | G35A G63A | -3.91
144 | C34U G77A A103C G117U G127C U130A | -7.38

Row | Variant | polymerase ribozyme fitness (log ratio)
145 | G36A G61C G93C G110A | -6.04
146 | G36A U92A C115U | -4.93
147 | G35U C101A C115U | -6.19
148 | G35A G120C C124A | -3.97
149 | G36A G61A G77A | -1.53
150 | G36C G42A C89U C114A G117C | -6.44
151 | G35A C101G | -5.52
152 | G36C G45C A111C G122A | -2.97
153 | C34U U59A C94U | -5.57
154 | G35U G45U G61U C97A C123G | -5.69
155 | G35C G61A U106G U112A | -3.75
156 | G35A | -3.65
157 | G35U | -4.66
158 | G35C | -4.55
159 | G35U C62U | -3.74
160 | G35A C62A A119G | -4.46
161 | G35C U106C | -4.83
162 | G36U G61C | -2.58
163 | G36U C123G U131G | 0.0423
164 | G36C G44U A90C C102U | -5.65
165 | G35U C64U U78C | -5.42
166 | G36C G120A | -0.114
167 | G36C G120U | -0.655
